Patent US20240317834A1, “COMPOSITIONS AND METHODS FOR NEUROLOGICAL DISEASES” (CODA BIOTHERAPEUTICS, INC., priority 2020, published 2024)

Test system: Lenti-X 293T cells
Experiment: YFP fluorescence quenching anion reporter plate reader assay of engineered receptors stimulated with acetylcholine or a non-native ligand
Type: cell-based
Conditions: for percent quench of YFP fluorescence, 10 uM ach: acetylcholine 10 uM; for percent quench of YFP fluorescence, 100 uM ach: acetylcholine 100 uM; for percent quench of YFP fluorescence, 1 mM ach: acetylcholine 1 mM; for percent quench of YFP fluorescence, 3 mM ach: acetylcholine 3 mM
Outline: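 Lenti-X 293T cells carrying a YFP anion reporter were transiently transfected with channel DNA and assayed the next day in HEPES-buffered ECS at pH 7.2. Ligand (acetylcholine or non-native ligand) was added in NaI-substituted ECS. Percent quench was the mean of the last 10 s relative to the 15 s pre-addition baseline.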

B1: CODA217: engineered chimeric LGIC receptor, W77F in SEQ ID NO: 33 (protein)
chain: MRCSPGGVWLALAASLLHVSLQGEFQRKLYKELVKNYNPLERPVANDSQPLTVYFSLSLLQIMDVDEKNQVLTTNIFLQMSWTDHYLQWNVSEYPGVKTVRFPDGQIWKPDILLYNSADERFDATFHTNVLVNSSGHCQYLPPGIFKSSCPMDLKNFPMDVQTCKLKFGSWSYGGWSLDLQMQEADISGYIPNGEWDLVGIPGKRSERFYECCKEPYPDVTFTVTMRRRMGYYLIQMYIPSLLIVILSWISFWINMDAAPARVGLGITTVLTMTTQSSGSRASLPKVSYVKAIDIWMAVCLLFVFSALLEYAAVNFVSRQHKELLRFRRKRRHHKSPMLNLFQEDEAGEGRFNFSAYGMGPACLQAKDGISVKGANNSNTTNPPPAPSKSPEEMRKLFIQRAKKIDKISRIGFPMAFLIFNMFYWIIYKIVRREDVHNQ
modifications: synthetic sequence of chimeric LGIC
- YFP fluorescence quenching using CNL001 (1 nM CNL001, first column): −22.273%
- YFP fluorescence quenching using CNL001 (1 nM CNL001, second column): −19.415%
- YFP fluorescence quenching using TC-5619/Bradanicline (3 nM brd): −12.1%
- YFP fluorescence quenching using Varenicline (3 nM var, first column): 5.662
- YFP fluorescence quenching using Varenicline (3 nM var, second column): 7.57
- YFP fluorescence quenching using CNL001 (10 nM CNL001, first column): −9.563%
- YFP fluorescence quenching using CNL001 (10 nM CNL001, second column): 6.398%
- YFP fluorescence quenching using TC-5619/Bradanicline (30 nM brd): −14.72%
- YFP fluorescence quenching using Facinicline (30 nM fac): −10.14
- YFP fluorescence quenching using Varenicline (30 nM var, first column): 13.968
- YFP fluorescence quenching using Varenicline (30 nM var, second column): 19.079
- YFP fluorescence quenching using CNL001 (50 nM CNL001, first column): 61.938%
- YFP fluorescence quenching using CNL001 (50 nM CNL001, second column): 66.837%
- YFP fluorescence quenching using ABT-126 (50 nM abt): 37.81%
- YFP fluorescence quenching using CNL001 (100 nM CNL001, first column): 79.791%
- YFP fluorescence quenching using CNL001 (100 nM CNL001, second column): 80.908%
- YFP fluorescence quenching using CNL002 (100 nM CNL002): 67.81%
- YFP fluorescence quenching using ABT-126 (100 nM abt): 57.31%
- YFP fluorescence quenching using AZD-0328 (100 nM azd0328): −7.57%
- YFP fluorescence quenching using ABT-126 (300 nM abt): 12.61%
- YFP fluorescence quenching using AZD-0328 (300 nM azd0328): 7.08%
- YFP fluorescence quenching using TC-5619/Bradanicline (300 nM brd): −6.3%
- YFP fluorescence quenching using Facinicline (300 nM fac): 68.29
- YFP fluorescence quenching using Varenicline (300 nM var, first column): 16.183
- YFP fluorescence quenching using Varenicline (300 nM var, second column): 18.025
- YFP fluorescence quenching using Varenicline (500 nM var, first column): 23.366
- YFP fluorescence quenching using Varenicline (500 nM var, second column): 19.206
- YFP fluorescence quenching using CNL001 (1 uM CNL001, first column): 83.444%
- YFP fluorescence quenching using CNL001 (1 uM CNL001, second column): 83.905%
- YFP fluorescence quenching using CNL002 (1 uM CNL002): 69.42%
- YFP fluorescence quenching using ABT-126 (1 uM abt): 66.05%
- YFP fluorescence quenching using TC-6987 (1 uM tc6987): −10.35
- YFP fluorescence quenching using Varenicline (1 uM var, first column): 34.69
- YFP fluorescence quenching using Varenicline (1 uM var, second column): 30.504
- YFP fluorescence quenching using TC-6987 (10 uM tc6987): −13.93
- YFP fluorescence quenching using CNL002 (30 uM CNL002): 73.64%
- YFP fluorescence quenching using AZD-0328 (30 uM azd0328): 81.59%
- YFP fluorescence quenching using Facinicline (30 uM fac): 87.35
- YFP fluorescence quenching using TC-6987 (500 uM tc6987): −7.54
- percent quench of YFP fluorescence, 10 uM ach: −5.86%
- percent quench of YFP fluorescence, 100 uM ach: 70.06%
- percent quench of YFP fluorescence, 1 mM ach: 68.71%
- percent quench of YFP fluorescence, 3 mM ach: 73.45%

B2: CODA75: non-responding chimeric engineered receptor used as the negative control (protein)
chain: MRCSPGGVWLALAASLLHVSLQGEFQRKLYKELVKNYNPLERPVANDSQPLTVYFSLSLLQIMDVDEKNQVLTTNIWLQMSWTDHYLQWNVSEYPGVKTVRFPDGQIWKPDILLYNSADERFDATFHTNVLVNSSGHCQYLPPGIFKSSCYIDVRWFPFDVQHCKLKFGSWSYGGWSLDLQMQEADISGYIPNGEWDLVGIPGKRSERFYECCKEPYPDVTFTVTMRRRTGYYLIQMYIPSLLIVILSWISFWINMDAAPARVGLGITTVLTMTTQSSGSEIMPATSDSVPLIAQAIDIWMAVCLLFVFSALLEYAAVNFVSRQHKELLRFRRKRRHHKSPMLNLFQEDEAGEGRFNFSAYGMGPACLQAKDGISVKGANNSNTTNPPPAPSKSPEEMRKLFIQRAKKIDKISRIGFPMAFLIFNMFYWIIYKIVRREDVHNQ
modifications: synthetic sequence of chimeric LGIC
notes: non-responding chimeric engineered receptor used as the negative control
- YFP fluorescence quenching using CNL001 (1 nM CNL001, first column): −8.496%
- YFP fluorescence quenching using CNL001 (1 nM CNL001, second column): −2.266%
- YFP fluorescence quenching using TC-5619/Bradanicline (1 nM brd): −13.39%
- YFP fluorescence quenching using TC-5619/Bradanicline (3 nM brd): −15.78%
- YFP fluorescence quenching using Varenicline (3 nM var, first column): 4.161
- YFP fluorescence quenching using Varenicline (3 nM var, second column): −6.216
- YFP fluorescence quenching using CNL001 (10 nM CNL001, first column): 1.816%
- YFP fluorescence quenching using CNL001 (10 nM CNL001, second column): −4.649%
- YFP fluorescence quenching using TC-5619/Bradanicline (10 nM brd): −13.47%
- YFP fluorescence quenching using TC-5619/Bradanicline (30 nM brd): −16.41%
- YFP fluorescence quenching using Facinicline (30 nM fac): −11.68
- YFP fluorescence quenching using Varenicline (30 nM var, first column): −5.173
- YFP fluorescence quenching using Varenicline (30 nM var, second column): −6.593
- YFP fluorescence quenching using CNL001 (50 nM CNL001, first column): −5.922%
- YFP fluorescence quenching using CNL001 (50 nM CNL001, second column): −5.597%
- YFP fluorescence quenching using ABT-126 (50 nM abt): −17.07%
- YFP fluorescence quenching using CNL001 (100 nM CNL001, first column): −8.159%
- YFP fluorescence quenching using CNL001 (100 nM CNL001, second column): −5.058%
- YFP fluorescence quenching using CNL002 (100 nM CNL002): −7.94%
- YFP fluorescence quenching using ABT-126 (100 nM abt): −16.76%
- YFP fluorescence quenching using AZD-0328 (100 nM azd0328): −8.83%
- YFP fluorescence quenching using Facinicline (100 nM fac): 4.35
- YFP fluorescence quenching using ABT-126 (300 nM abt): −16.76%
- YFP fluorescence quenching using AZD-0328 (300 nM azd0328): −11.15%
- YFP fluorescence quenching using TC-5619/Bradanicline (300 nM brd): −17.56%
- YFP fluorescence quenching using Facinicline (300 nM fac): −10.55
- YFP fluorescence quenching using Varenicline (300 nM var, first column): −5.733
- YFP fluorescence quenching using Varenicline (300 nM var, second column): −7.312
- YFP fluorescence quenching using ABT-126 (500 nM abt): −14.68%
- YFP fluorescence quenching using Varenicline (500 nM var, first column): −10.35
- YFP fluorescence quenching using Varenicline (500 nM var, second column): −7.586
- YFP fluorescence quenching using CNL001 (1 uM CNL001, first column): −4.272%
- YFP fluorescence quenching using CNL001 (1 uM CNL001, second column): −1.281%
- YFP fluorescence quenching using CNL002 (1 uM CNL002): −9.81%
- YFP fluorescence quenching using ABT-126 (1 uM abt): −16%
- YFP fluorescence quenching using TC-6987 (1 uM tc6987): −11.79
- YFP fluorescence quenching using Varenicline (1 uM var, first column): −5.637
- YFP fluorescence quenching using Varenicline (1 uM var, second column): −3.757
- YFP fluorescence quenching using ABT-126 (3 uM abt): −14.11%
- YFP fluorescence quenching using ABT-126 (10 uM abt): −13.98%
- YFP fluorescence quenching using TC-6987 (10 uM tc6987): −14.31
- YFP fluorescence quenching using CNL002 (30 uM CNL002): −15.27%
- YFP fluorescence quenching using ABT-126 (30 uM abt): −21.05%
- YFP fluorescence quenching using AZD-0328 (30 uM azd0328): −11.92%
- YFP fluorescence quenching using Facinicline (30 uM fac): −5.25
- YFP fluorescence quenching using ABT-126 (50 uM abt): −21.35%
- YFP fluorescence quenching using ABT-126 (100 uM abt): −24.12%
- YFP fluorescence quenching using TC-6987 (500 uM tc6987): −19.65
- percent quench of YFP fluorescence, 10 uM ach: −12.88%
- percent quench of YFP fluorescence, 30 uM ach (acetylcholine 30 uM): −18.67%
- percent quench of YFP fluorescence, 50 uM ach (acetylcholine 50 uM): −0.29%
- percent quench of YFP fluorescence, 100 uM ach: −14.46%
- percent quench of YFP fluorescence, 300 uM ach (acetylcholine 300 uM): −16.31%
- percent quench of YFP fluorescence, 500 uM ach (acetylcholine 500 uM): −17.41%
- percent quench of YFP fluorescence, 1 mM ach: −16.46%
- percent quench of YFP fluorescence, 3 mM ach: −12.38%
- percent quench of YFP fluorescence, 5 mM ach (acetylcholine 5 mM): −20.88%
- percent quench of YFP fluorescence, 10 mM ach (acetylcholine 10 mM): −8.69%
